The data set concerns the molecule itself. The data set can be described thus: crystal structure.

In general, stoichiometry N refers to a count of units in the complex or per binding partner.

B1: ATP synthase c-subunit of Mycobacterium phlei (Fo rotor ring, c9 ring) (natural protein, UniProt A0A5N5V239 1-86, looked up)
chain: MELDPNALITAGALIGGGLIMGGGAIGAGIGDGIAGNALISGIARQPEAQGRLFTPFFITVGLVEAAYFINLAFMALFVFATPGLQ
For the protein B1, the “stoichiometry N” value was 9.

The values are drawn from PMC4640650 (Science Advances, 2015).
